For one data set, the system named is HSP90AA1 locus. In words: mKate knock-in gene-editing assay, RecE/RecT homologs, HSP90AA1 locus. Format: cell-based, human. To be noted: HEK293 cells, MCP fusion, n=3. The essentials:
(§1)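 RecE/RecT homologs from 15 microbial species, codon-optimized and each fused via E-XTEN linker to MCP with NLS, tested for mKate knock-in. Cells transfected by Lipofectamine 3000 (HEK293T 250 ng DNA/well; HeLa, HepG2 400 ng); knock-in efficiency measured by flow cytometry 72 h post-transfection.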

Another data set relates to DYNLT1 locus. In words: mKate knock-in gene-editing assay, RecE/RecT homologs, DYNLT1 locus. In kind it is cell-based, human. To be noted: HEK293 cells, MCP fusion, n=3. A digest of the protocol:
as §1

For data set [1], the system named is endogenous genomic loci (DYNLT1, HSP90AA1, AAVS1, ACTB) in HEK293T cells. In words: Kilobase mKate knock-in assay in HEK293T cells (flow cytometry). In kind it is cell-based, human. To be noted: for HDR / knock-in efficiency enhancement: five genomic sites (EMX1, VEGFA, HSP90AA1, DYNLT1, AAVS1), wtCas9; for activity in no-recruitment control: PCP no-recruitment control; for knock-in editing activity with dCas9, comparison of SSAPs: dCas9, MS2-MCP. How it is done: Transfection HEK293T cells were seeded into 96-well plates (Corning) 12-24 hours prior to transfection at a density of 30,000 cells/well, and 250 ng of total DNA was transfected per well. HeLa and HepG2 cells were seeded into 48-well plates (Corning) one day prior to transfection at a density of 50,000 and 30,000 cells/well respectively, and 400 ng of total DNA was transfected per well. Transfections were performed with Lipofectamine 3000 (Life Technologies) following the manufacturer's instructions.
Fluorescence-activated cell sorting (FACS) mKate knock-in efficiency was analyzed on a CytoFLEX flow cytometer (Beckman Coulter; Stanford Stem Cell FACS Core). 72 hours after transfection, cells were washed once with PBS and dissociated with TrypLE Express Enzyme (Thermo Fisher Scientific). Cell suspension was then transferred to a 96-well U-bottom plate (Thermo Fisher Scientific) and centrifuged at 300×G for 5 minutes. After removing the supernatant, pelleted cells were resuspended with 50 μl 4% FBS in PBS, and cells were sorted within 30 minutes of preparation.
HEK293T, Hela, HepG2 and U2OS cells were seeded into 96-well plates (Corning) 12-24 hours prior to transfection at a density of 30,000 cells/well, and 250 ng of total DNA was transfected per well. Cells were transfected with Lipofectamine 3000 (Life Technologies) following the manufacturer's instructions when the cell are ˜70% confluence. In brief, we used 250 ng total DNA, 0.4 ul Lip3000 reagent, mixed with 10 ul of Opti-MEM per well. For the 250 ng DNA, we used 160 ng of dCas9-SSAP guide RNA plasmids (for double sgRNAd design, use equal amount of the two guide RNA plasmids, e.g., 80 ng each), 60 ng of pMCP-RecT or GFP control plasmid (addgene #64539) and 30 ng of PCR template DNA (the PCR primer could be found in Table 7, the template sequence could be found in Supplementary Sequences). Three days later, the cells were analyzed using FACS.
mKate knock-in efficiency was analyzed on a CytoFLEX flow cytometer (Beckman Coulter; Stanford Stem Cell FACS Core). 72 hours after transfection or 96 hours after electroporation, cells were washed twice with PBS and dissociated with TrypLE Express Enzyme (Thermo Fisher Scientific). Cell suspension was then transferred to a 96-well U-bottom plate (Thermo Fisher Scientific) and centrifuged at 300 g for 5 minutes. After removing the supernatant, pelleted cells were resuspended with 50 μl 4% FBS in PBS, and cells were analyzed within 30 minutes after preparation.

In the next data set the test system is mammalian cells. In words: Arrayed SSAP library screening, cell viability by live cell counts via flow cytometry. In kind it is cell-based. The essentials:
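Each SSAP plasmid transfected in duplicate (~50% efficiency), with RecT SSAP as positive and Flag-HA as negative control. After three days, mKate-positive cells and viability by flow-cytometric live cell counts were quantified to gauge SSAP fitness effects.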
A general note: In flow cytometry, cells or beads pass a laser one at a time.

In data set [2] the test system is endogenous genome targets (ACTB, HSP90AA1). In words: Arrayed SSAP library screening, mKate knock-in assay (editing efficiency). In kind it is cell-based. To be noted: average of HSP90 and ACTB, 3 days after transfection. The essentials:
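Mammalian cells in duplicate were transfected with SSAP-encoding plasmids, with about 50% transfection efficiency. mKate knock-in positive cells and viability, by flow-cytometric live counts, were quantified three days later. RecT SSAP served as positive control and Flag-HA plasmid as negative control.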

B1: Homolog_T15: RecT, Photobacterium sp. JCM 19050; SEQ ID NO: 141 (protein, listed as Photobacterium sp.)
chain: MNTDMIAMPPSPAISMLDTSKLDVMVRAAELMSQAVVMVPDHFKGKPADCLAVVMQADQWGMNPFTVAQKTHLVSGTLGYESQLVNAVISSSKAIKGRFHYEWSDGWERLAGKVQYVKESRQRKGQQGSYQVTVAKPTWKPEDEQGLWVRCGAVLAGEKDITWGPKLYLASVLVRNSELWTTKPYQQAAYTALKDWSRLYTPAVMQGSMTGKSWSLTGRLISPR
Take B1: the “Mean mKate+ (%), HSP90AA1” value with HSP90AA1 locus is given as 5.2333%. Moreover, in the data set with DYNLT1 locus, the “Mean mKate+ (%), DYNLT1” value stood at 7.8033%.

B2: RecE_CTD: carboxy terminus domain of E. coli RecE; SEQ ID NO: 3 (protein)
chain: GISNENYHAGPGVSKSQLDDIADTPALYLWRKNAPVDTTKTKTLDLGTAFHCRVLEPEEFSNRFIVAPEFNRRTNSGKEEEKAFLRECASTGKTVITAEEGRKIELMYQSVMALPLGQWLVESAGHAESSIYWEDPETAILCRCRPDKIIPEFHWIMDVKTTADIQRFKTAYYDYRYHVQDAFYSDGYEAQFGVQPTFVFLVASTTIECGRYPVEIFMMGEEAKLAGQLEYHRNLRTLADCLNTDEWPAIKTLSLPRWAKEYAND
Turning to B2, in data set [1], the “HDR / knock-in efficiency enhancement” value was “variable increases in knock-in efficiency”.

B3: EcRecT: Escherichia coli RecT SSAP; SEQ ID NO: 171 (Tables 8, 9), SEQ ID NO: 9; positive control in Table 9 (protein)
chain: MTKQPPIAKADLQKTQGNRAPAAIKNNDVISFINQPSMKEQLAAALPRHMTAERMIRIATTEIRKVPALGNCDTMSFVSAIVQCSQLGLEPGSALGHAYLLPFGNKNEKSGKKNVQLIIGYRGMIDLARRSGQIASLSARVVREGDEFNFEFGLDEKLIHRPGENEDAPVTHVYAVARLKDGGTQFEVMTRKQIELVRSQSKAGNNGPWVTHWEEMAKKTAIRRLFKYLPVSIEIQRAVSMDEKEPLTIDPADSSVLTGEYSVIDNSEE
In the case of B3, in data set [1], the “activity in no-recruitment control” value is recorded as “efficiency increases in a recruitment-dependent manner” and the “HDR / knock-in efficiency enhancement” value was “significantly enhanced HDR in all cases”. Besides, the “genomic knock-in efficiency of kilobase cassette, dCas9 editing” value in data set [1] (SSAP candidate screen, HSP90AA1, DYNLT1, ACTB, human cells) is at most 6%. Further, the “knock-in editing activity with dCas9, comparison of SSAPs” value in data set [1] (human cells) is “highest efficiency for dCas9 editing”. In addition, the “knock-in editing activity with dCas9, comparison of SSAPs” value in data set [1] (human cells, listed as RecT) is “higher knock-in editing activities relative to other SSAPs”. Further, the “HDR efficiency for kb-scale knock-in” value in data set [1] (template bearing 600-800 bp total HA, without selection) is listed as “over 10%”. Moreover, in the data set on mammalian cells, the “Cell Viability (Average, two targets)” value was determined as 0.8651. Moreover, the “Mean mKate+ (%), HSP90AA1” value in the data set on HSP90AA1 locus is given as 6.5467%. Besides, the “Mean mKate+ (%), DYNLT1” value with DYNLT1 locus worked out at 9.9467%. The “Editing Efficiency (Normalized, Average, two targets)” value in data set [2] (fold over negative control (Flag_HA)) came to 3.807. Further, the “Editing Efficiency (Absolute, Average, two targets)” value in data set [2] (percent of mKate knock-in) is given as 9.4225.

B4: Homolog_E15: RecE, Photobacterium sp. JCM 19050; SEQ ID NO: 142 (protein, listed as Photobacterium sp.)
chain: MAERVRTYQRDAVFAHELKAEFDEAVENGKTGVTLEDQARAKRMVHEATTNPASRNWFRYDGELAACERSYFWRDEEAGLVLKARPDKEIGNNLIDVKSIEVPTDVCACDLNAYINRQIEKRGYHISAAHYLSGTGKDRFFWIFINKVKGYEWVAIVEASPLHIELGTYEVLEGLRSIASSTKEADYPAPLSHPVNERGIPQPLMSNLSTYAMKRLEQFREL
Consider B4, for which the “Mean mKate+ (%), HSP90AA1” value in the data set with HSP90AA1 locus was found to be 6.0500%. Further, in the data set with DYNLT1 locus, the “Mean mKate+ (%), DYNLT1” value was 5.0700%.

B5: EcRecE_587: Escherichia coli RecE truncated from AA587; SEQ ID NO: 2 (protein)
chain: ADPVIVEDIEPGIYYGISNENYHAGPGVSKSQLDDIADTPALYLWRKNAPVDTTKTKTLDLGTAFHCRVLEPEEFSNRFIVAPEFNRRTNSGKEEEKAFLRECASTGKTVITAEEGRKIELMYQSVMALPLGQWLVESAGHAESSIYWEDPETAILCRCRPDKIIPEFHWIMDVKTTADIQRFKTAYYDYRYHVQDAFYSDGYEAQFGVQPTFVFLVASTTIECGRYPVEIFMMGEEAKLAGQLEYHRNLRTLADCLNTDEWPAIKTLSLPRWAKEYAND
Take B5: in data set [1], the “HDR / knock-in efficiency enhancement” value is given as “variable increases in knock-in efficiency”. Also, the “Mean mKate+ (%), HSP90AA1” value with HSP90AA1 locus was 3.7067%. In addition, in the data set with DYNLT1 locus, the “Mean mKate+ (%), DYNLT1” value worked out at 5.1767%.

B6: RecE: Escherichia coli RecE exonuclease; SEQ ID NO: 1 (protein, listed as Escherichia coli)
chain: MSTKPLFLLRKAKKSSGEPDVVLWASNDFESTCATLDYLIVKSGKKLSSYFKAVATNFPVVNDLPAEGEIDFTWSERYQLSKDSMTWELKPGAAPDNAHYQGNTNVNGEDMTEIEENMLLPISGQELPIRWLAQHGSEKPVTHVSRDGLQALHIARAEELPAVTALAVSHKTSLLDPLEIRELHKLVRDTDKVFPNPGNSNLGLITAFFEAYLNADYTDRGLLTKEWMKGNRVSHITRTASGANAGGGNLTDRGEGFVHDLTSLARDVATGVLARSMDLDIYNLHPAHAKRIEEIIAENKPPFSVFRDKFITMPGGLDYSRAIVVASVKEAPIGIEVIPAHVTEYLNKVLTETDHANPDPEIVDIACGRSSAPMPQRVTEEGKQDDEEKPQPSGTTAVEQGEAETMEPDATEHHQDTQPLDAQSQVNSVDAKYQELRAELHEARKNIPSKNPVDDDKLLAASRGEFVDGISDPNDPKWVKGIQTRDCVYQNQPETEKTSPDMNQPEPVVQQEPEIACNACGQTGGDNCPDCGAVMGDATYQETFDEESQVEAKENDPEEMEGAEHPHNENAGSDPHRDCSDETGEVADPVIVEDIEPGIYYGISNENYHAGPGISKSQLDDIADTPALYLWRKNAPVDTTKTKTLDLGTAFHCRVLEPEEFSNRFIVAPEFNRRTNAGKEEEKAFLMECASTGKTVITAEEGRKIELMYQSVMALPLGQWLVESAGHAESSIYWEDPETGILCRCRPDKIIPEFHWIMDVKTTADIQRFKTAYYDYRYHVQDAFYSDGYEAQFGVQPTFVFLVASTTIECGRYPVEIFMMGEEAKLAGQQEYHRNLRTLADCLNTDEWPAIKTLSLPRWAKEYAND
Regarding B6, the “activity in no-recruitment control” value in data set [1] is given as “had activities without recruitment”.

(Values after US20250034594A1, “RNA-GUIDED GENOME RECOMBINEERING AT KILOBASE SCALE” (THE BOARD OF TRUSTEES OF THE LELAND STANFORD JUNIOR …, priority 2021, published 2025).)
